Measured values taken from patent US20210115143A1.

Assays:
[1] = target: human PD-L1 on primary human cells in the dendritic cell / CD4+ T cell mixed lymphocyte reaction (human) (UniProt Q9NZQ7); experiment: cell-based or functional assay
[2] = target: PD-L1-His tagged, human recombinant, HEK293-derived, Phe19-Thr239 (R&D systems Cat #9049-B7-100) (human) (UniProt Q9NZQ7); experiment: SPR (Reichert), antibody captured by immobilized anti-human IgG, PD-L1-His in solution, 1:1 model, 25 C
[3] = target: PD-L1-Fc, human IgG Fc fusion protein, human recombinant, HEK293-derived, Phe19-Thr239 (R&D systems Cat #156-B7-100) (human) (UniProt Q9NZQ7); experiment: SPR (Reichert), PD-L1-Fc immobilized, antibody in solution, 1:1 model, 25 C
PD-L1-Fc, human IgG Fc fusion protein, human recombinant, HEK293-derived, Phe19-Thr239 (R&D systems Cat #156-B7-100) (human), sequence (Q9NZQ7 19-239 limits assumed): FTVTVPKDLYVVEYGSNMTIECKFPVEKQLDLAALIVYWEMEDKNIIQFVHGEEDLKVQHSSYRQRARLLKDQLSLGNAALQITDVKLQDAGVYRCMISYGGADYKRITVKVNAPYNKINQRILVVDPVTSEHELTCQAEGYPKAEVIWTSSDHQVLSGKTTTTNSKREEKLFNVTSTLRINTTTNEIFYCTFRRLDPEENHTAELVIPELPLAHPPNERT

[4] = target: C1q (Sigma, Cat #C1740) (UniProt P02745); experiment: ELISA: antibody coated at 0-25 µg/mL, C1q at 2 µg/mL, anti-C1q-HRP
C1q (Sigma, Cat #C1740), sequence (P02745 23-245 limits assumed, chain 1 of 3): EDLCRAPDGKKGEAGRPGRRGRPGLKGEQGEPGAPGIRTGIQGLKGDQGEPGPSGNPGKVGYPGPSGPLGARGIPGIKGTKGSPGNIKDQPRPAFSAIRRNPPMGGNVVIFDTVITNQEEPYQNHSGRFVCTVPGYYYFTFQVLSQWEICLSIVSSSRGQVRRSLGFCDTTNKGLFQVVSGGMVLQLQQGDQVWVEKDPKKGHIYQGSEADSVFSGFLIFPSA
C1q (Sigma, Cat #C1740), sequence (P02746 28-253 limits assumed, chain 2 of 3, further chain): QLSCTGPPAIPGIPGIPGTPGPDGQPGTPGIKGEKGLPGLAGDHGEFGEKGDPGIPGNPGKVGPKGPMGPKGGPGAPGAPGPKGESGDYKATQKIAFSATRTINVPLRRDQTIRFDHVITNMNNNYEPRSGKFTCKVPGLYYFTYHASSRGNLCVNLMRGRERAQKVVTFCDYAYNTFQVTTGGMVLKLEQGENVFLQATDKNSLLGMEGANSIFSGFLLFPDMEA
C1q (Sigma, Cat #C1740), sequence (P02747 29-245 limits assumed, chain 3 of 3, further chain): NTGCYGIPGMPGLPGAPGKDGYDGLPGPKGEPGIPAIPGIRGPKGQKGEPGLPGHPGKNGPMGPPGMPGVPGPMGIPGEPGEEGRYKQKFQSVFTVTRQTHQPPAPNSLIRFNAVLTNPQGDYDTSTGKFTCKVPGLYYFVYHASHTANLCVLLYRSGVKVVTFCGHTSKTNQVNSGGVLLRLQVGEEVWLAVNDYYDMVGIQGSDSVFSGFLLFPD

[5] = target: CD32a receptor (Fc gamma receptor) (UniProt P12318); experiment: method not stated
CD32a receptor (Fc gamma receptor), sequence (P12318 36-218): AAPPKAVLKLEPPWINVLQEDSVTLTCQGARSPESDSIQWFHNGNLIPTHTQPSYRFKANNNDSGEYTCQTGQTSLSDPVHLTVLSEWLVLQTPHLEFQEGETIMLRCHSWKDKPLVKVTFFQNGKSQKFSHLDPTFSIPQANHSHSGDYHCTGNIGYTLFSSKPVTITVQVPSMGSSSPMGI

[6] = target: CD16a receptor (Fc gamma receptor) (UniProt P08637); experiment: method not stated
CD16a receptor (Fc gamma receptor), sequence (P08637 17-208 limits assumed): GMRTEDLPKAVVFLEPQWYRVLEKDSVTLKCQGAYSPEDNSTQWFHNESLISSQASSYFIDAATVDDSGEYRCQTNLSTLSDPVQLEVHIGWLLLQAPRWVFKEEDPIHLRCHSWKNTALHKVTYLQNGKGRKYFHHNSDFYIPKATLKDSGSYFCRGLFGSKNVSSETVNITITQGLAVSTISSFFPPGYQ

[7] = target: PD-L1-His tagged, human recombinant, HEK293-derived, Phe19-Thr239 (R&D systems Cat #9049-B7-100) (human) (UniProt Q9NZQ7); experiment: SPR (Reichert), antibody immobilized directly, PD-L1-His in solution, 1:1 model, 25 C
[8] = target: PD-L1-His tagged, human recombinant, HEK293-derived, Phe19-Thr239 (R&D systems Cat #9049-B7-100) (human) (UniProt Q9NZQ7); experiment: SPR, captured antibody, PD-L1-His in solution

PD-L1-His tagged, human recombinant, HEK293-derived, Phe19-Thr239 (R&D systems Cat #9049-B7-100) (human), sequence (Q9NZQ7 19-239 limits assumed): as the sequence (Q9NZQ7 19-239 limits assumed) above
human PD-L1 on primary human cells in the dendritic cell / CD4+ T cell mixed lymphocyte reaction (human), sequence (Q9NZQ7 19-290): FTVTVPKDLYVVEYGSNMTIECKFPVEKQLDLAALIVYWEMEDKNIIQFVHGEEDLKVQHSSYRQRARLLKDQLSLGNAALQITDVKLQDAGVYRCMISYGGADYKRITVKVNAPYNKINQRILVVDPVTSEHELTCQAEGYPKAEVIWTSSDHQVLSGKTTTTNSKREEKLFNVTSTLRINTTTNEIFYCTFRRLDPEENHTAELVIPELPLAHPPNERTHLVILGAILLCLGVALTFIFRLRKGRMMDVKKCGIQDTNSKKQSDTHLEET

EC50 of IL-2 secretion in mixed lymphocyte reaction (MLR) [1]: 21.5 nM
Kd [2]: 0.67 nM
Kd [3]: 0.26 nM
EC50 [4]: 14.9 µg/mL
Kd [5]: 41000 nM
Kd [6]: 16000 nM
Kd [7]: 0.62 nM
binding affinity against that of B60-55-1 (log) [8]: 2 log
Substance: atezolizumab (Tecentriq), Genentech Inc, Lot 3109904 (antibody)
